# T1: recombinant human GDF-8 (Homo sapiens, UniProt O14793)
# T1 sequence (O14793 267-375): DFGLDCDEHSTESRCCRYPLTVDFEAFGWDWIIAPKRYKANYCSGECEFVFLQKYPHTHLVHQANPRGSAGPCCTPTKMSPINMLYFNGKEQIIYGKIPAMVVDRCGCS
# T2: recombinant human Activin A (Homo sapiens, UniProt P08476)
# T2 sequence (P08476 311-426): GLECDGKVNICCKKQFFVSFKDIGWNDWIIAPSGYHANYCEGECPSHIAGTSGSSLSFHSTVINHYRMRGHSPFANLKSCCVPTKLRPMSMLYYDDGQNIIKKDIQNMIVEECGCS
# T3: GIP receptor (GIPR) (Rattus norvegicus, UniProt P43219)
# T3 construct: endogenous in cells; host or cells: rat INS-1 insulinoma cells (derivatives with a cAMP-luciferase reporter or pGloSensor-22F)
# T3 sequence (P43219 19-455): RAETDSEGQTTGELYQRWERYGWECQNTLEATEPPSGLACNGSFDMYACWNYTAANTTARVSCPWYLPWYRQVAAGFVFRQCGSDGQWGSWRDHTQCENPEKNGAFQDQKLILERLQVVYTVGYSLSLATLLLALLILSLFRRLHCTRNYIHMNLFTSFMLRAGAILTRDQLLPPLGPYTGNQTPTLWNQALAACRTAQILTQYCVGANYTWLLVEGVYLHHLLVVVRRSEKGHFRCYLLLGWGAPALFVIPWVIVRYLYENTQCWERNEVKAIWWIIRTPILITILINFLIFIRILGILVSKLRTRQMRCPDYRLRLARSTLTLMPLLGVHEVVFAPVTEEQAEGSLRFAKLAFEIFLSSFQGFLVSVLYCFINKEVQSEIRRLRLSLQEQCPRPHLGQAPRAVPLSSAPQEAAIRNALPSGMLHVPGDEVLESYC
# B1: GIP(Ag)-Fc-FGF19: chimeric protein: GIP fused to FGF19 via IgG1 hinge-CH2-CH3 Fc domain; SEQ ID NO: 88 (protein)
# chain: YAEGTFISDYSIAMDKIHQQDFVNWLLAQKGKKNDWKHNITQPCPAPEAAGGPSVFLFPPKPKDTLMISRTPEVTCVVVDVSHEDPEVKFNWYVDGVEVHNAKTKPREEQYNSTYRVVSVLTVLHQDWLNGKEYKCKVSNKALPAPIEKTISKAKGQPREPQVYTLPPSRDELTKNQVSLTCLVKGFYPSDIAVEWESNGQPENNYKTTPPVLDSDGSFFLYSKLTVDKSRWQQGNVFSCSVMHEALHNHYTQKSLSLSPGKIEGRMDRDSSPLVHYGWGDPIRLRHLYTSGPHGLSSCFLRIRADGVVDCARGQSAHSLLEIKAVALRTVAIKGVHSVRYLCMGADGKMQGLLQYSEEDCAFEEEIRPDGYNVYRSEKHRLPVSLSSAKQRQLYKNRGFLPLSHFLPMLPMVPEEPEDLRGHLESDMFSSPLETDSMDPFGLVTGLEAVRSPSFEK
# How the values were obtained:
# recombinant human GDF-8 = molecular target: T1, recombinant human GDF-8; assay: MSD platform-based binding assay to plate-bound GDF-8; settings: anti-human Fc detection
# Protocol: (§1) The binding by a recombinant human ACVR2B-Fc fusion protein to GDF-8 (also known as myostatin) was characterized using a Meso Scale Discovery (MSD) platform-based assay. Briefly, GDF-8 was coated on a plate and 8× serial dilutions of the purified recombinant human ACVR2B-Fc fusion protein were also added in a series of wells. The protein captured by the plate-bound GDF-8 was detected using an anti-human Fc antibody and a SULFO-TAG conjugated secondary antibody.
# (§2) The binding to GDF-8 by the GLP-1-Fc-ACVR2B fusion protein produced using the mmRNA constructs was investigated using a Meso Scale Discovery (MSD) platform-based assay. Briefly, HEK293T cells were transfected with each mRNA construct using lipofectamine 2000, and culture supernatants were collected after 48 hours. GDF-8 was coated on a plate, and 3× serial dilutions of the culture supernatants were added to the plate for capture by the plate-bound GDF-8. The protein captured by the plate-bound GDF-8 was detected using an anti-human Fc antibody and a SULFO-TAG conjugated secondary antibody. The MSD signals generated by the culture supernatants of HEK293T cells transfected with different mmRNA constructs were plotted as a line graph.
# [1] = molecular target: T2, recombinant human Activin A; assay: MSD platform-based binding assay to plate-bound Activin A; settings: anti-human Fc detection
# Protocol: as §1, with “to activin A” for “to GDF-8”, “as Inhibin beta A)” for “as myostatin)”, “Briefly, Activin A” for “Briefly, GDF-8”, “plate-bound Activin A” for “plate-bound GDF-8”
# as §2, with “Activin A” for “GDF-8”, “Activin A.” for “GDF-8.”
# [2] = system: rat insulinoma INS-1 cells; assay: in vitro glucose-stimulated insulin secretion (GSIS) in rat insulinoma INS-1 cells; format: cell-based; settings: 1 hour glucose, then 2 hour incubation; ELISA; FIG. 4B
# Source text: X is a known inducer of GSIS.
# GIP receptor (GIPR) = molecular target: T3, GIP receptor (GIPR); assay: cAMP-Glo assay in rat insulinoma INS-1 cells harboring a cAMP-luciferase reporter gene; format: cell-based; settings: 1 hour glucose, then 2 hour incubation with increasing amounts; FIG. 4A
# Source text: Rat insulinoma INS-1 cells harboring a cAMP-luciferase reporter gene were used to study the activation of GIPR. Without wishing to be bound by theory, the activation of GIPR leads to temporary depletion of ATP because of consumption of ATP in cyclization reaction to produce cAMP as well as by phosphorylation by protein kinase A of its substrate. Without wishing to be bound by theory, the temporary depletion of ATP leads to an inhibition of luciferase activity, which needs ATP as a substrate.
Molecule,binding to GDF-8 (recombinant human GDF-8),binding to Activin A [1],insulin in the culture supernatant (glucose-stimulated insulin secretion) [2],inhibition of luciferase (activation of GIPR) (GIP receptor (GIPR))
GLP-1-Fc-ACVR2B: GLP-1 fused to extracellular domain of ACVR2B via IgG1 Fc domain; SEQ ID NO: 154; tested as culture supernatant of mmRNA-transfected HEK293T cells,binds to the human GDF-8,binds to the human Activin A,,
B1,,,"stimulated insulin production to a similar, if not greater magnitude than dulaglutide or tirzepatide",dose-dependent and saturable inhibition of luciferase with similar potency

# — US12145975B2, “Fusion proteins for the treatment of cardiometabolic diseases” (Shattuck Labs, Inc., priority 2022, dated 2024)
